Target: histones (chicken (endogenous in LMH))
Experiment: high-salt co-extraction with histones from chromatin; LMH cells 48 h post-transfection; chromatin pelleted and incubated in 50 mM Tris-HCl pH 8.0, 2.5 M NaCl, 0,05% NP40 for 30 min at 4°C; supernatant (histones fraction) on 10% SDS-PAGE, colloidal coomassie blue and immunoblot with anti-VP22 L13a

**Q.** For “VP22 of Marek's disease virus tagged with eGFP at its C-terminus (natural protein)”, which fold less VP22 in the histone extract than from peGFP-UL49 cells is on record?
**A.** 4.5 fold

From article PMC4063868
